Measured values reported in US20200093909A1 (INSTITUTE FOR RESEARCH IN BIOMEDICINE, published 2020).
Substitutions are numbered along the chain they refer to.

T1: NPDP-peptide (Plasmodium falciparum)
T1 peptide: KQPADGNPDPNANPNKNN

T2: NANP-peptide (Plasmodium falciparum)
T2 construct: CSP repeat peptide coated at 2 ug/mL in ELISA; also called NANP repeat region peptide
T2 peptide: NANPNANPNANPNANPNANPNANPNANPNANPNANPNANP

T3: 22-110-peptide (Plasmodium falciparum)
T3 construct: N-terminal CSP peptide coated at 1 ug/mL in ELISA
T3 peptide: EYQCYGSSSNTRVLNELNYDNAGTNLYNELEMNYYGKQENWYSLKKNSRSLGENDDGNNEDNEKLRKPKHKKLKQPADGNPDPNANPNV

B1: MGV3 (antibody, V domains shown)
VH: EVQVVESGGDLVQPGGSLRLSCAVYGFTVSDSYMSWVRQAPGKGLEWVSVIYSGSSTYYIDSVKGRFTISRDRSKNTLYLQMNTLRVEDTALYYCARGPNDYRNRKYYYYMDVWGKGTAVTVSS
VL: EIVLTQSPDTLSLSAGERVTLSCRASQSVDSPYLAWYQQRPGQTPRLLIFGASIRATDIPDRFSGGGSGTDFTLTISRLEPEDSGVYYCHQYGNAPYIFGQGTKLEIK
notes: also called biotin-labeled MGV3; biotinylated MGV3
B2: MGG4 (antibody, V domains shown)
VH: QVQLVESGGGVVQPGRSLRLSCAASGFRFSDYGMHWVRQAPGKGLEWVALIWYDGSNESYLDSVKGRFTISRDNSKNTLYLQMNNLRTEDTAVYYCAKLLVGITTDVFDVWGQGTVVTVSS
VL: DIVMTQSPDSLAVSLGERATINCRSSQSVLSSSNNKNYLAWYQHKPRQPPKLLIYWASTRESGVPDRFSGSGSGTDFTLTISSLQAEDVAVYYCQQYYTASPFFGGGTKVEIK
B3: MGG1 (antibody, V domains shown)
VH: EVQLVESGGGVVRPGGSLRLSCAASGFTFDDYAMSWVRQAPGKGLEWVSGINWNGGSTGYADSVKGRFTISRDNAKNSLYLQMNSLRAEDTALYHCARLGRAAREYYYYYMDVWGKGTTVTVSS
VL: QSVLTQPPSVSAAPGQKVTISCSGSSSNIGNNYVSWYQQLPGTAPKLLIYDNNKRPSGIPDRFSGSKSGTSATLGITGLQTGDEADYYCGTWDSSLSAGVFGGGTKLTVLG
B4: MGH1 (antibody, V domains shown)
VH: QVQLVQSGAEVKKPGASVRVSCKTSGYTFTDYYVHWVRQAPGHGLECMGWINPYIGVSKYAQKFQGRVTLTRDTSISTAYMEISRLTSDDTAVYYCAACSNVGCYVYWGQGSLVTVSS
VL: DVVMTQSPLSLPVTLGQPASISCRSSQSLVYSDGNTYLNWFQQRPGQSPRRLIYKVSNRDSGVPDRFSGSGSGTDFTLKISRVEAEDVAIYFCMQGTHWPDTFGQGTKLEIK
B5: MGU12 (antibody, V domains shown)
VH: QVQLVESGGGVVQPGRSLRLSCAASGFSFSSYGMHWVRQAPGKGPEWVAVIWHDGSYSYYADSVRGRFTISRDNSKNTLYLQMNSLRPEDTGMYHCVKVEDYVRGSSHGGAFHIWGQGTMVTVSS
VL: DIQMTQSPSTLSASVGDRVTITCRASQTINNWLAWYQWKPGKAPELLIYKASSLESGVPSRFSGSGSGTEFTLTISSLQPDDFATYYCQQYSSYWTFGQGTKVDIK
B6: MGU11 (antibody, V domains shown)
VH: QVQLVESGGGVVQPGRSLRLSCVASGFSFSSYGMHWVRQAPGKGLEWVAVIWYDGTNKYYADSVKGRFTISRDNTKNTLYLQMNSLRADDTAMYYCANDIAGWGYDGSNAWGQGTLVTVSS
VL: LSLPVTPGQPASISCKSSQSLVYSDGNTYLNWFQQRPGQSPRRLIYKVSNRDSGVPDRFSGSGSGTDFTLKISRVEAEDVGVYYCMQGTVGFTFGPGTTVDIK
B7: MGH3 (antibody, V domains shown)
VH: EVQLVESGGGLVKPGGSLRLSCAASGFTFSSYTMNWVRQAPGKGLEWVSSISSSGSYIYYADSVKGRCTISRDNAKNSLDLQMNSLRAEDAAVYYCARNVLDSSGYPTYFDYWGQGTLVTVSS
VL: DIVMTQSPLSLPVTPGEPASISCRSSQSLLYSNGYNYLDWYVQKPGQSPRLLIYLGSNRASGVPDRFSGSGSGTDFTLRISRVEAEDVGFYYCMQAVQTPLTFGGGTKVEIK
B8: MGU1 (antibody, V domains shown)
VH: QVQLVESGGGVVQPGRSLRLSCAASGFAFSSYGMNWVRQAPGKGLEWVAVIWHDGTNKYYRDSVKGRFIISRDNAKNTLYLQMDSLSAEDTAMYYCAIWYLDSPDHGFDIWGRGTMVTVSS
VL: QLVLTQSPSASASLGVSVTLTCTLNNGHSSNAIAWHQQQPGKGPRYLMKVNSDGSHNKGAAVPDRFSGSSSGTERHLTISSLQSDDEADYYCQAWDSGIWVFGGGTKLTVL
B9: MGU10 (antibody, V domains shown)
VH: QVQLVESGGGVVQPGRSLRLSCAASGFAFSNYGMNWVRQAPGKGLEWVAVIWHDGSLKYYTQSVKGRFTISRDNAKNTLFLQMDSLSADDTAMYYCTVWYLETPDDGFDIWGRGTMVTVSS
VL: B8 VL with S7P, N25S, N26H, S29T, N31K, N57T, S70T, T73A, L77F, S81N
B10: MGG3 (antibody, V domains shown)
VH: QEQLVESGGGVVQPGKSLRLSCAASGFTFSTFGMHWVRQAPGKGLEWVAVIWYDGSSKYHADSVKGRFTISRDNSKSTLYLQMNSLRAEDTAMYYCVKVGANWGWRYFDLWGRGTLVTVSS
VL: DIVMTQTPLSLSVTPGQPASISCKSSQSLLHSDGNTYLSWYLQKPGQSPQLLIYEVSSRFSGVPDRFSGSGSGTDFTLKISRVEADDVGVYYCMQGIHSWTFGQGTKVEIK
B11: MGH2 (antibody, V domains shown)
VH: QVQLVESGGGVVQPGGSLRLSCTASGFSFSSYAMHWVRQAPGKGLEWVAYTRYDGSNKFYLDSVQGRFTISRDNSKNTLYLEMDSLRLEDTAVYFCAKVGDGTVAGTIDYWGQGTLVTVSS
VL: YIVMTQSPLSLPVTLGQPASISCRSSQSLVYSDGNTYLNWYQQRPGQSPRRLIYKVSNRDSGVPDRFSGSGSGTDFTLKISRVEAEDVGVYYCMQGTHWWTFGQGTKVEIK
B12: MGU3 (antibody, V domains shown)
VH: EVLLVESGGGLVQPGGSLRLSCAASGFTFSDYNMHWVRQAPGKGLEWLSYISHSSSTTYYADSVRGRFTISRDNAKNSLYLQMNSLRAEDTAVYYCARLRPLSYSGRYRDYWGQGTLVTVSS
VL: DIQMTQSPSSLSASVGDRVTITCQASQDVSNYVNWYQQKPGKAPKVLIYDASTLQTGVPSRFSGSGSGTDFTFSISSLQPEDIATYYCQQYDSLPLTFGGGTKVEIK
B13: MGG2 (antibody, V domains shown)
VH: EVQLVESGGGLVQPGGSLRLSCAASGFTLNNYWMHWVRQAPGKGLVWVAHINIDGSTTTYADSVKGRFTISRDNAKNTLYLQMNSLRAEDTAVYYCAKGSIKAGGFWSGYSNWFDPWGQGTLVTVSS
VL: QAVVTQEPSLTVSPGGTVTLTCDSDPGPVTSGHYPYWFQQKPGQVPRTLIYDTSNKHSWTPARFSGSLLGGKAALTLSGAQPEDEADYYCLLSYGGAPVFGGGTKLTVL
B14: MGU5 (antibody, V domains shown)
VH: QVQLVESGGGVVQPGRSLRLSCAASGFSFSSYGMHWVRQAPGKGLDWVALIWHDGTNKFYTDSVKGRFTISRDNSKDTLFLQMNSLRVEDTAVYYCTKRAGWGDALDIWGQGTMVTVSS
VL: DIQMTQSPSSLSASVGDRVTITCQASQDISNYLNWYQQKPGKAPKLLIYDASNLETGVPSRFSGSGSATDFTLTISSLQSEDIATYYCQQQRIFGGGTKVEIK
B15: MGU8 (antibody, V domains shown)
VH: QVQLVESGGGVVQPGRSLRLSCAAGGFTFSNYGMHWVRQAPGKGLEWVALIWHDGTNKFYADSVKGRFTISRDNSKNTLSLQMDSLTTEDTAIYFCTKRGGWGDGSDIWGQGTMVTVSS
VL: B14 VL with I29V, S30D, Q38H, E55A, A68S, E81D, I83F, K99R
B16: MGG8 (antibody, V domains shown)
VH: EVQLVESGGGLVQPGGSLKLSCAASGFMISGSVLHWVRQASGKGLEWLGRIRDKANNEATAYAASVKGRFTISRDDSKDTTYLQMNSLRIEDTAVYYCTRGIIVGDTWHFDPWGQGTLVTVSS
VL: DIVMTQTPLSLSVTPGQTASISCKSSESLLRSDGKTYLYWYLQKPGQSPQLLMYEVSKRFSGVPDRFSGSGSGTDFTLKISRVETDDVGIYYCMQSIQLVTFGQGTKVEIK

Columns and labels:
[1] = target: T4, CSP C-terminal peptide 282-383 (Plasmodium falciparum); experiment: ELISA, C-terminal peptide 282-383 coated at 1 ug/ml
T4 construct: Coated at 1 ug/ml in ELISA; also called C-terminus of CSP

NPDP-peptide = target: T1, NPDP-peptide; experiment: ELISA, peptide coated, titrated antibody
NANP-peptide = target: T2, NANP-peptide; experiment: ELISA, peptide coated, titrated antibody
22-110-peptide = target: T3, 22-110-peptide; experiment: ELISA, peptide coated, titrated antibody
[2] = target: T4, CSP C-terminal peptide 282-383; experiment: ELISA, peptide coated at 1 ug/ml, B cell supernatants from 1/3 to 1/648 dilution

| Binder | binding result [1] | binding result (NPDP-peptide) | binding result (NANP-peptide) | binding result (22-110-peptide) | EC50 (NPDP-peptide) | binding result [2] |
| --- | --- | --- | --- | --- | --- | --- |
| B1 | no binding | binds | no binding | binds | – | – |
| B2 | no binding | – | – | – | < 0.1 µg/mL | – |
| B3 | no binding | – | – | binds | – | – |
| B4 | no binding | binds | binds | binds | – | – |
| B5 | no binding | – | – | – | < 0.1 µg/mL | – |
| B6 | no binding | – | – | – | – | – |
| B7 | no binding | – | binds | – | – | – |
| B8 | no binding | binds | binds | binds | – | – |
| B9 | no binding | – | – | – | – | – |
| B10 | no binding | – | – | – | < 0.1 µg/mL | – |
| B11 | no binding | – | – | – | < 0.1 µg/mL | – |
| B12 | – | no binding | no binding | no binding | – | binds |
| B13 | no binding | binds | binds | binds | – | – |
| B14 | no binding | – | – | – | < 0.1 µg/mL | – |
| B15 | no binding | – | – | – | < 0.1 µg/mL | – |
| B16 | no binding | binds | binds | binds | – | – |
